Experimental data published in publication PMC7868338, “Identification of Functional Interactome of Colistin Resistance Protein MCR-1 in Escherichia coli” (Frontiers in Microbiology, 2020).

How the values were obtained:
[1] = target: T1, SspB protein (SPR analyte) (E. coli, UniProt P0AFZ3 1-165); assay: SPR
T1 chain: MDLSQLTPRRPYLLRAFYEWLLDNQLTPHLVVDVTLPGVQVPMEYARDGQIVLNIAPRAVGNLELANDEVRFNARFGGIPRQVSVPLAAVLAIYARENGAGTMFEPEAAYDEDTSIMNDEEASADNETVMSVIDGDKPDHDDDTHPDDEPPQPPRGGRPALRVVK

[2] = target: T2, MCR-1 full-length protein (E. coli (strain SHP45), UniProt A0A0R6L508 1-541); assay: SPR; Reichert 4SPR; MCR-1 or MCR-1-200 in PBS directly immobilised on a Planar Mixed SAM chip; SspB 0.156-5 μM (twofold dilutions) in PBST pH 7.4, 0.05% Tween-20; conditions: both partners purified
T2 construct: MCR-1, phosphoethanolamine transferase; gene amplified from E. coli strain SHP45; 541 amino acids; also called His6-MCR-1; source: E. coli BL21 (DE3) (pET28a-mcr-1), IPTG-induced; in lysate (1% DDM) for the Co-IP; purified (Ni-NTA) for SPR
T2 sequence: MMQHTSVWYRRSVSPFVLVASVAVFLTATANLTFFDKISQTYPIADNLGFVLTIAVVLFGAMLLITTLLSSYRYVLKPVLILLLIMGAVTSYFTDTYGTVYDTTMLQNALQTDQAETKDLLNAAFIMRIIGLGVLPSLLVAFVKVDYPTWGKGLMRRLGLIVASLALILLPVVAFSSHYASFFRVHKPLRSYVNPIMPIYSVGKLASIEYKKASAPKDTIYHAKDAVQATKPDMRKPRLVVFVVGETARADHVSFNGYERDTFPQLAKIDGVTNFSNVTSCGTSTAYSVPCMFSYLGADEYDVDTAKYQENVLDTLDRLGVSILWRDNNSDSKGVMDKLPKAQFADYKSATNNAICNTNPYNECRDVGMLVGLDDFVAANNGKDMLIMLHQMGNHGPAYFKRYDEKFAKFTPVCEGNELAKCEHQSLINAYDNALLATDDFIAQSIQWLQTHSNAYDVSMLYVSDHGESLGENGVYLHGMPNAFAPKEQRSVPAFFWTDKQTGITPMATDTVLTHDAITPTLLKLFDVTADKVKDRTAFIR

[3] = target: T3, MCR-1-200 catalytic domain protein (E. coli (strain SHP45), UniProt A0A0R6L508 201-541); assay: as above; conditions: both partners purified
T3 construct: catalytic domain of MCR-1, 341 amino acids; also called catalytic domain of MCR-1; MCR-1 catalytic protein; source: E. coli BL21 (DE3) (pET28a-mcr-1-200), IPTG-induced; in lysate (1% DDM) for the Co-IP; purified (Ni-NTA) for SPR
T3 sequence: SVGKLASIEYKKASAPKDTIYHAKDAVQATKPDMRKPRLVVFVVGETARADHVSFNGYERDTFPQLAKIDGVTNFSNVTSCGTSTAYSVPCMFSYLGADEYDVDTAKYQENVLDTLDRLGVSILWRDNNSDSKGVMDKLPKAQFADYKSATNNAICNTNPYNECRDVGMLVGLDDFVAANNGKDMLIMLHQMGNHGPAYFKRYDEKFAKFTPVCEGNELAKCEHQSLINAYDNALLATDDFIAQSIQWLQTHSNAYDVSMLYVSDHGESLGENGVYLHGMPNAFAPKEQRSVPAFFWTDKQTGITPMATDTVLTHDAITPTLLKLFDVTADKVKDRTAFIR

B1: MCR-1-200 catalytic domain protein (domain or fragment)
chain: SVGKLASIEYKKASAPKDTIYHAKDAVQATKPDMRKPRLVVFVVGETARADHVSFNGYERDTFPQLAKIDGVTNFSNVTSCGTSTAYSVPCMFSYLGADEYDVDTAKYQENVLDTLDRLGVSILWRDNNSDSKGVMDKLPKAQFADYKSATNNAICNTNPYNECRDVGMLVGLDDFVAANNGKDMLIMLHQMGNHGPAYFKRYDEKFAKFTPVCEGNELAKCEHQSLINAYDNALLATDDFIAQSIQWLQTHSNAYDVSMLYVSDHGESLGENGVYLHGMPNAFAPKEQRSVPAFFWTDKQTGITPMATDTVLTHDAITPTLLKLFDVTADKVKDRTAFIR
In the case of B1, the koff [1] is reported as 0.0106 s⁻¹.

B2: SspB protein (SPR analyte) (natural protein)
chain: MDLSQLTPRRPYLLRAFYEWLLDNQLTPHLVVDVTLPGVQVPMEYARDGQIVLNIAPRAVGNLELANDEVRFNARFGGIPRQVSVPLAAVLAIYARENGAGTMFEPEAAYDEDTSIMNDEEASADNETVMSVIDGDKPDHDDDTHPDDEPPQPPRGGRPALRVVK
notes: Stringent starvation protein B, E. coli; also called Stringent starvation protein B
B2 showed a Kd [2] of 140 µM and a Kd [3] of 5.13 µM.

B3: MCR-1 full-length protein (enzyme)
chain: MMQHTSVWYRRSVSPFVLVASVAVFLTATANLTFFDKISQTYPIADNLGFVLTIAVVLFGAMLLITTLLSSYRYVLKPVLILLLIMGAVTSYFTDTYGTVYDTTMLQNALQTDQAETKDLLNAAFIMRIIGLGVLPSLLVAFVKVDYPTWGKGLMRRLGLIVASLALILLPVVAFSSHYASFFRVHKPLRSYVNPIMPIYSVGKLASIEYKKASAPKDTIYHAKDAVQATKPDMRKPRLVVFVVGETARADHVSFNGYERDTFPQLAKIDGVTNFSNVTSCGTSTAYSVPCMFSYLGADEYDVDTAKYQENVLDTLDRLGVSILWRDNNSDSKGVMDKLPKAQFADYKSATNNAICNTNPYNECRDVGMLVGLDDFVAANNGKDMLIMLHQMGNHGPAYFKRYDEKFAKFTPVCEGNELAKCEHQSLINAYDNALLATDDFIAQSIQWLQTHSNAYDVSMLYVSDHGESLGENGVYLHGMPNAFAPKEQRSVPAFFWTDKQTGITPMATDTVLTHDAITPTLLKLFDVTADKVKDRTAFIR
B3 was tested, and the koff [1] was 0.325 s⁻¹.
